Some targets named below: Protein G variant GLM; Protein G variant GD; Protein G variant GF.
Holding throughout (assay): SPR
In general terms: SPR reads the build-up and loss of mass on a sensor chip optically.

Assay [1] concerns the target Protein G-Fc (Fc specific Protein-G variant).

What is called Kd is the free concentration of one partner at which half of the binding sites on the other are occupied at equilibrium, for simple one-to-one binding. High values mean a looser complex, low ones a tighter complex. As for “Fab^H, wild-type human (Herceptin) Fab scaffold with a kappa light chain”, the Kd is 8.9 nM with Protein G variant GLM, 6.4 nM with Protein G variant GD and 1.9 nM in the assay with Protein G variant GF.

Take “human Fc (Fc domain of IgG) (domain or fragment)”: in assay [1], the Kd came out at 3.8 nM.

The values are drawn from doi:10.1101/2024.08.06.606809.
